The source of these data is the RNAGym collection of RNA variant scans (doi:10.1093/nar/gkz1192).

First the molecules themselves.
B1: CPEB3 Ribozyme (parent)
chain: UAACAGGGGGCCACAGCAGAAGCGUUCACGUCGCAGCCCCUGUCAGAUUCUGGUGAAUCUGCGAAUUCUGCUGUAUAUCUC

The variants in the data set derive from B1. The experiment in a line: self-cleavage, relative activity (ratio to wild type); higher = more cleavage; in vitro, sequencing. In short, it runs like this: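 Libraries of CPEB3 self-cleaving ribozyme mutants came from rounds of error-prone PCR and carried barcodes, which DNA sequencing matched to variants. In vitro transcription used T7 RNA polymerase at 37°C for 5 hours, with a further 15 min in DNase I before EDTA stopped the reaction; the ribozymes cleaved during both steps. The RNA was reverse transcribed with template switching and sequenced on Illumina. Relative activity is the cleaved/total read fraction of a variant divided by that of the unmutated ribozyme, averaged over three batches with at least 5 reads.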
For UAACAGGGGGCCACAGCAGAAGCGUUCACGUCGCAGCCCAUGUCAGAUUCAGGUGAAUCUGCGAAUUCUGCUGUAUAUCUC [C40A U51A], the self-cleavage worked out at 0.33.
For UAACAGGGGGCCACAGCAGAAGCGUUCACGUCGCAGCCCAUGUCAGAUUCGGGUGAAUCUGCGAAUUCUGCUGUAUAUCUC [C40A U51G] the value was 0.25; for UAACAGGGGGCCACAGCAGAAGCGUUCACGUCGCAGCCCAUGUCAGCUUCUGGUGAAUCUGCGAAUUCUGCUGUAUAUCUC [C40A A47C], 0.17.
To UAACAGGGGGCCACAGCAGAAGCGUUCACGUCGCAGCCCAUGUCAGGUUCUGGUGAAUCUGCGAAUUCUGCUGUAUAUCUC [C40A A47G] belongs 0.21; to UAACAGGGGGCCACAGCAGAAGCGUUCACGUCGCAGCCCAUGUCAGAUUCUGGUGAAUCUGCGAGUUCUGCUGUAUAUCUC [C40A A65G], 0.31.
To UAACAGGGGGCCACAGCAGAAGCGUUCACGUCGCAGCCCAUGUCAGAUUCUGGUGAAUCUGCGGAUUCUGCUGUAUAUCUC [C40A A64G] belongs 0.12.
Take UAACAGGGGGCCACAGCAGAAGCGUUCACGUCGCAGCCCAUGUCAGAUUCUGGUGAAUCUGCGAAUUCUGCUGUACAUCUC [C40A U76C]: the self-cleavage turned out to be 0.38.
For UAACAGGGGGCCACAGCAGAAGCGUUCACGUCGCAGCCCAUGUCAGAUUCUGGUGAAUCUGCGAAUUCUGCUGUAAAUCUC [C40A U76A] the value was 0.28; for UAACAGGGGGCCACAGCAGAAGCGUUCACGUCGCAGCCCAUGUCAGAUUCUGGUGAAUCUGCGAAUUCUGCUGUAUAUCUC [C40A], 0.28; for UAACAGGGGGCCACAGCAGAAGCGUUCACGUCGCAGCCCGUGUCAGAUUCUGGUGAAUCUGCGAAUUCUGCUGUAUAUCUC [C40G], 0.29.
For UAACAGGGGGCCACAGCAGAAGCGUUCACGUCGCAGCCCGGGUCAGAUUCUGGUGAAUCUGCGAAUUCUGCUGUAUAUCUC [C40G U41G] the value was 0.6; for UAACAGGGGGCCACAGCAGAAGCGUUCACGUCGCAGCCCGAGUCAGAUUCUGGUGAAUCUGCGAAUUCUGCUGUAUAUCUC [C40G U41A], 0.26; for UAACAGGGGGCCACAGCAGAAGCGUUCACGUCGCAGCCCGCGUCAGAUUCUGGUGAAUCUGCGAAUUCUGCUGUAUAUCUC [C40G U41C], 0.32.
For UAACAGGGGGCCACAGCAGAAGCGUUCACGUCGCAGCCUCUGUCAGAUUCUGGUGAAUCUGCGAAUUCUGCUGUACAUCUC [C39U U76C] the value was 1.08.
For the variant UAACAGGGGGCCACAGCAGAAGCGUUCACGUCGCAGCCCGUGUCAGAUUCUGGUGUAUCUGCGAAUUCUGCUGUAUAUCUC [C40G A56U], the self-cleavage came to 0.42.
Turning to UAACAGGGGGCCACAGCAGAAGCGUUCACGUCGCAGCCUCUGUCAGAUUCUGGUGAAUCUGCGAAUUCUGCCGUAUAUCUC [C39U U72C], the self-cleavage was found to be 0.71.
For UAACAGGGGGCCACAGCAGAAGCGUUCACGUCGCAGCCUCUGUCAGAUUCUGGUGAAUCUGCGAAUUCUGCGGUAUAUCUC [C39U U72G] the value was 1.06; for UAACAGGGGGCCACAGCAGAAGCGUUCACGUCGCAGCCUCUGUCAGAUUCUGGUGAAUCUGCGAAUUCUGCAGUAUAUCUC [C39U U72A], 0.98.
To UAACAGGGGGCCACAGCAGAAGCGUUCACGUCGCAGCCCAUGUCAGAUUUUGGUGAAUCUGCGAAUUCUGCUGUAUAUCUC [C40A C50U] belongs 0.22.
Regarding UAACAGGGGGCCACAGCAGAAGCGUUCACGUCGCAGCCCAUGUCAGAUUAUGGUGAAUCUGCGAAUUCUGCUGUAUAUCUC [C40A C50A], the self-cleavage is 0.27.
Regarding UAACAGGGGGCCACAGCAGAAGCGUUCACGUCGCAGCCCAUGUCAGAUUCUGGUGAAUCUGCGAAUUCUGCUGUAUGUCUC [C40A A77G], the self-cleavage is 0.28.
For UAACAGGGGGCCACAGCAGAAGCGUUCACGUCGCAGCCCAUGUCAGAUUCUGGUGAAUCUGCGAAUUCUGCUGUGUAUCUC [C40A A75G] the value was 0.47; for UAACAGGGGGCCACAGCAGAAGCGUUCACGUCGCAGCCCAUGUCAGAUUCUGGUGAAUCUGCGAAUUCUGCUGUUUAUCUC [C40A A75U], 0.43.
For UAACAGGGGGCCACAGCAGAAGCGUUCACGUCGCAGCCCAUGUCAGAUUCUGGUGAAUCUGCGAAUUCUGCUGAAUAUCUC [C40A U74A] the value was 0.3.
On to UAACAGGGGGCCACAGCAGAAGCGUUCACGUCGCAGCCCAUGUCAGAUUCUGGUGAAUCUGCAAAUUCUGCUGUAUAUCUC [C40A G63A], for which the self-cleavage turned out to be 0.12.
To UAACAGGGGGCCACAGCAGAAGCGUUCACGUCGCAGCCCAUGUCAGAUUCUGGUGAAUCUGCGAAUUCUGCUGUAUAUCCC [C40A U80C] belongs 0.24; to UAACAGGGGGCCACAGCAGAAGCGUUCACGUCGCAGCCCAUGUCAGAUUCUGGUGAAUCUGCGAAUUCUGCUGUAUAUCAC [C40A U80A], 0.26.
Turning to UAACAGGGGGCCACAGCAGAAGCGUUCACGUCGCAGCCCAUGUCAGAUUCUGGUGAAUCUGCGAAUUCCGCUGUAUAUCUC [C40A U69C], the self-cleavage amounted to 0.25.
For UAACAGGGGGCCACAGCAGAAGCGUUCACGUCGCAGCCCAUGUCAGAUUCUGGUGAAUCUGCGAAUUCGGCUGUAUAUCUC [C40A U69G] the value was 0.11; for UAACAGGGGGCCACAGCAGAAGCGUUCACGUCGCAGCCCGUGUCAGACUCUGGUGAAUCUGCGAAUUCUGCUGUAUAUCUC [C40G U48C], 0.13; for UAACAGGGGGCCACAGCAGAAGCGUUCACGUCGCAGCCCGUGUCAGAAUCUGGUGAAUCUGCGAAUUCUGCUGUAUAUCUC [C40G U48A], 0.67.
For UAACAGGGGGCCACAGCAGAAGCGUUCACGUCGCAGCCCAUGCCAGAUUCUGGUGAAUCUGCGAAUUCUGCUGUAUAUCUC [C40A U43C] the value was 0.14.
For UAACAGGGGGCCACAGCAGAAGCGUUCACGUCGCAGCCCAUGACAGAUUCUGGUGAAUCUGCGAAUUCUGCUGUAUAUCUC [C40A U43A], the self-cleavage is 0.45.
To UAACAGGGGGCCACAGCAGAAGCGUUCACGUCGCAGCCCGUGUCAGAUUCUGGUGAAUCAGCGAAUUCUGCUGUAUAUCUC [C40G U60A] belongs 0.11.
